Measurements from publication PMC2705800, “Nucleocytoplasmic Shuttling of the TACC Protein Mia1p/Alp7p Is Required for Remodeling of Microtubule Arrays during the Cell Cycle” (PLoS ONE, 2009).

Target: T1, MBP-Mia1p-MutNES4 (S. pombe, UniProt Q9URY2 1-474, L461A (AVAAMDQANA; Leu/Ile residues 461, 463, 468 and 470) | I463A (AVAAMDQANA; …)
T1 construct: Cloned into the pAD2a vector (MBP upstream of the multiple cloning site), as m1; also called Mia1-MutNES4; NES mutant version of Mia1p; source: E. coli BL21 (DE3) carrying the pG-KJE8 chaperone plasmid; not shown: MBP, N-terminal, kept
T1 sequence (looked up): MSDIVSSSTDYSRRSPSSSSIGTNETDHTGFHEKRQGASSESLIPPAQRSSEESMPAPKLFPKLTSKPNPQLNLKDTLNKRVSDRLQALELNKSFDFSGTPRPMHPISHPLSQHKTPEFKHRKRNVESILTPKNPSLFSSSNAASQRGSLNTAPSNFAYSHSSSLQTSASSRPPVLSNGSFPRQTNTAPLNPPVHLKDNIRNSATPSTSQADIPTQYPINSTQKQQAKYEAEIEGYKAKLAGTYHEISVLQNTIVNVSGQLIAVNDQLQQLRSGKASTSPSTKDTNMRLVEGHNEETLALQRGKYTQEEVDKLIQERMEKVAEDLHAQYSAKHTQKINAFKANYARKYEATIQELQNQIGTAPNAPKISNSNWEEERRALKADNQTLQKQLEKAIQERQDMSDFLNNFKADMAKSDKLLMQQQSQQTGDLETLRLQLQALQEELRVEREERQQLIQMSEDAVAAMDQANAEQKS
Assay: pull-down; MBP fusion held on amylose resin, incubated 1 hour at 4°C with soluble total lysate of Alp14p-13myc expressing mia1Δ S. pombe cells; Buffer A (20 mM Tris-HCl pH 7.4, 400 mM NaCl, 1 mM EDTA, 10 mM β-mercaptoethanol); washed 3 times; Alp14p-myc detected with anti-myc antibody, MBP proteins by Coomassie
Conditions: one partner purified

B1: Alp14p-13myc (natural protein, S. pombe, UniProt O94534 1-809, looked up)
chain: MSQDQEEDYSKLPLESRIVHKVWKVRLSAYEECSKSFSLSADGSDNCFELWNNQSELWKSVLTDSNVAAQEAGTAAFVAYCRFSDPSHLLKAREISVLSISEKCLTSPRAGTRENALEALMLLVEADSAAPVIESIIPSLSARSPKVIASNVAAIASLVEQFGAKVIPSKMIIPHISNLFGHADKNVRKEASRLTVNIYRWTGDPLKDLLFKDLRPVQTKELESLFAELPTEPPKQTRFLKSQQPTSEPNVETQVEEQPALENEESEPEPSDDQFDLVEEVDVLPNVDPNLETLMASSKWKDRKEALDKLLPVLSQPKIKDNDFFNLVAILTKSVSKDANIMVVINAAHCIQAMAKGLRSNFSKYASTSINALLERSKEKKANVIESLSSAMDAVLATSSLDDLAELIASFAGNKNPQIKSSCFSLFSRSFSNMTSLPSKFTVDTCAKACVPGVSDTFEPVRSAAAEALGVLMKLVGERAINQYLSPLDDIRKSKIRSFYETATVKAKAPTKKSKVKPSKQEESKVVVPSNAKAVKKSVVPSSPVVPSPRKATNKSLSMDVSKGNAFENGPLLPRPTTRPVSRGLSRGTSSSLQQKVKASTPLNSGALNETVQNLKNMELDDPAPQPAKHSRVDRYEHPKVLEDNDSTISSLESLKRENEELREQLKVEHEENISMQKQLSELKGELNTLRSARKASPIGDRKPAFMRRANTDFLELSTSPSFQRSVREFEPTRPKLYSSIDVNQRSPLASAKTNGNFTFHAELPRSPFSSRANNINPDWTKAIDLAAKLKQKITEMKQTDQRHQGLIH
notes: Alp14p, TOG protein of Schizosaccharomyces pombe, partner of Mia1p/Alp7p; also called Alp14p-myc; Alp14p/TOG; source: S. pombe mia1Δ cells expressing Alp14p-13myc, total cell lysate
For B1, the “ratio of Alp14p-myc pulled down, against MBP-Mia1p” value was 0.26 ratio to MBP-Mia1p.
